To fix the notation:
B1: TPR t1 (parent)
chain: GACCAAUCUGCCCUCAGAGCUCGAGAACAUCUUCGGAUGCAGAGGAGGCAGGCUUCGGUGGCGCGAUAGCGCCAACGUCCUCAACCUCCAAUGCAUCCCACCACAUGAUGAUGCCUGAAGAGCCUUGGUUUUUUG

We go through 21 variants from the RNAGym collection of RNA variant scans (doi:10.1073/pnas.2313332121).

The variants in the data set derive from B1. Kind of data set: polymerase ribozyme fitness, log enrichment relative to wild type (log ratio); higher = more active; in vitro selection for triplet polymerase activity. Summed up:
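To select mutant libraries of each subunit of a heterodimeric triplet polymerase ribozyme, built by PCR and transcribed, each was annealed with a biotinylated primer, partner subunit and triplets, then incubated frozen at −7 °C. Extended constructs were gel-excised, captured on streptavidin beads and amplified by RT-PCR, in one round carried out in triplicate. Illumina sequencing of input and output libraries kept genotypes with ≥10 input reads and ≥1 read per output. Fitness is the base-2 logarithm of genotype enrichment relative to wild-type enrichment, from inverse-variance-weighted replicate averages.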
As for GACCAAUCUGCCCUCAGAGCUCGAGAACAUCUUCGGAUGCAUAGGAGGCAGGCUUCGGUGGCGCGAUAGCGCCAACGUUCUCAACCUCCAAUGCAUCCCUCCACAUGAUGAUGCCUGAAGAGCCUUGGUUUUUUG [G42U C79U A100U], the “polymerase ribozyme fitness (log ratio)” value was -2.8.

Regarding GACCAAUCUGCCCUCAGAGCUCGAGAACAUCUUCGGAUGCAUAGGAGGCAGGCUUCGGUGGCGCGAUAGCGUCAACGUCCUCAACCUCCAAUGCAUCCCACCACAUGAUGAUGCCUGAAGAGCCAUGGUUUUUUG [G42U C72U U125A], the “polymerase ribozyme fitness (log ratio)” value was -1.92.

Regarding GACCAAUCUGCCCUCAGAGCUCGAGAACAUCUUCGGAUGCAUAGUAGGCAGGCUUCGGUGGCGCGAUAGCGCCAACGUCCUCAACCUGCGAUGCAUCCCACCACAUGAUGAUGCCUGAAGAGCCUUGGUUUUUUG [G42U G45U C88G A90G], the “polymerase ribozyme fitness (log ratio)” value is -1.09.

For GACCAAUCUGCCCUCAGAGCUCGAGAACAUCUUCGGAUGCAUAGGAGGCAGCCUUCGGUGGCGCGAUAGCGCCAACGUCCUCAACCUCCAAUGCAUGCCACCACAUGAUGAUGCUUGAAGAGCCUUGGUUUUUUG [G42U G52C C97G C115U], the “polymerase ribozyme fitness (log ratio)” value is -6.37.

In the case of GACCAAUCUGCCCUCAGAGCUCGAGAACAUCUUCGGAUGCAUAGGAGGCAGUCUUCGGUGGCGCGAUAGCGCCAACGUCCUCAACCUCCAAUGCAACCCACCACAUGAUGAUGCCUGAAGAGCGUUGGUUUUUUG [G42U G52U U96A C124G], the “polymerase ribozyme fitness (log ratio)” value is -1.76.

With GACCAAUCUGCCCUCAGAGCUCGAGAACAUCUUCGGAUGCAUAGGAGGCACGCUUCGGUGGCGCGAUAGCGCCAACGUCCUCAACCUCCAAUGCAUCCCACCACAUGAUGAUGCCUGAAGAGCCUUGGUUUUUUG [G42U G51C], the “polymerase ribozyme fitness (log ratio)” value is -6.75.

In the case of GACCAAUCUGCCCUCAGAGCUCGAGAACAUCUUCGGAUGCAUAGGAGGCAGGCUUCGGUGGCGCGAUAGCGUCAACGUCCUCAACCUCCAAUUCAUCCCACCACAUGAUGAUGCCUGGAGAGCCUUGGUUUUUUG [G42U C72U G93U A118G], the “polymerase ribozyme fitness (log ratio)” value is -4.06.

In the case of GACCAAUCUGCCCUCAGAGCUCGAGAACAUCUUCGGAUGCAUAGGAGGCAGGCUUCGGUGGCGCGAUAGCGCAAACGUCCUCAACCUCCAAUGCAUCCCACCACACGAUGAUGCCUGAAGAGCCUUGGUUUUUUG [G42U C73A U106C], the “polymerase ribozyme fitness (log ratio)” value was -1.97.

With GACCAAUCUGCCCUCAGAGCUCGAGAACAUCUUCGGAUGCAUAGGAUGCAGGCUUCGGUAGCGCGAUAGCGCCAACGUCCUCAACCUCCAAUGCAUCCCACCACAUGAUGAAGUCUCAAGAGCCUUGGUUUUUUG [G42U G47U G60A U112A C114U G117C], the “polymerase ribozyme fitness (log ratio)” value was -5.02.

For GACCAAUCUGCCCUCAGAGCUCGAGAACAUCUUCGGAUGCAUAGGAGGCAGGCUUCGGUGGCGCGAUAGCGCCAACGUCCUCAGCCUCCAAUGCAUCCCACCACAUGAUGAUGCCUGAAGAGCCUUGGUUUUUUG [G42U A84G], the “polymerase ribozyme fitness (log ratio)” value is -3.57.

Turning to GACCAAUCUGCCCUCAGAGCUCGAGAACAUCUUCGGAUGCAUAGGAGGCAGGCUUCGGUGGCGCGAUAGCGCCAACGUCCUCAACCUACAAAGCAUCCCACCACAUGAUGAUGCCUGAAAAGCCUUGGUUUUUUG [G42U C88A U92A G120A], the “polymerase ribozyme fitness (log ratio)” value is -1.96.

As for GACCAAUCUGCCCUCAGAGCUCGAGAACAUCUUCGGAUGCAUAGGAGGCAGGCUUCGGUGGCGCGAUAGCGCCGACGUCCUCAAACUCCAAUGCAUCCCACCACAUGAUGAUGCCUGAAGAGCCUUGGUUUUUUG [G42U A74G C85A], the “polymerase ribozyme fitness (log ratio)” value is -1.78.

GACCAAUCUGCCCUCAGAGCUCGAGAACAUCUUCGGAUGCAUAGGAGGUAGGCUUCGGUGACGCGAUAGCGCCAACGUCCUCAACCUCCAAUGCAUCCCACCACAUGAUGAUGCCUGAAGAGCCUUGGUUUUUUG [G42U C49U G61A]: the “polymerase ribozyme fitness (log ratio)” value is -1.64.

Take GACCAAUCUGCCCUCAGAGCUCGAGAACAUCUUCGGAUGCAUAGGAGGCAGGCUUCGGUGGCGCGAUAGCGGCAACGUCCUCAACCUCCAAUGUAUCCCACCACAUGAUGAUGCCUGAAUAGCCUUGGUUAUUUG [G42U C72G C94U G120U U131A]: the “polymerase ribozyme fitness (log ratio)” value is -2.67.

GACCAAUCUGCCCUCAGAGCUCGAGAACAUCUUCGGAUGCAUAGGAGGCAGGCUUGGGUGGCGCGAUAGCGCCAACGUCCUCAACCUCCAAUGCAUCCCACCACAUGAUGAUGCCUGAAGAGUCUUGGUUUUUUG [G42U C56G C123U]: the “polymerase ribozyme fitness (log ratio)” value was -0.406.

Consider GACCAAUCUGCCCUCAGAGCUCGAGAACAUCUUCGGAUGCAUAGGAGUCAGGCUUCGGUGGCGCGAUAGCGCCAACGUCCUCAACCUCCAAUGCAUCCCACCACAUGAUGAUGCCUGAAGAGCCUUGGUUUUUUG [G42U G48U], for which the “polymerase ribozyme fitness (log ratio)” value was -3.89.

In the case of GACCAAUCUGCCCUCAGAGCUCGAGAACAUCUUCGGAUGCAUAGGAGGCAGGGUUCGGUGGCGCGAUAGCGCCAACGUCCUCAACCUCCAAUGCAUCCCACCACAUGAUGAUGCCUGAAGAGCCUUGGUUUUUUG [G42U C53G], the “polymerase ribozyme fitness (log ratio)” value is -1.45.

In the case of GACCAAUCUGCCCUCAGAGCUCGAGAACAUCUUCGGAUGCAUAGGAGGCAGGUUUCGGUGGCGCGAUAGCGCCAACGUCCUCAACCUCCAAUGCAUCCCACCACAUGAUGAUGCCUGAAGAGCCUUGGUUUUUUG [G42U C53U], the “polymerase ribozyme fitness (log ratio)” value was -1.85.

For the variant GACCAAUCUGCCCUCAGAGCUCGAGAACAUCUUCGGAUGCAUAGGAGGCGGGCUUCCGUGUCGCGAUAGCGCCAACGUCAUAAACCUCCAAUGCAUCCCACCACAUGAUGAUGCCUGAAAAGCCUUGGUUUUUUG [G42U A50G G57C G61U C80A C82A G120A], the “polymerase ribozyme fitness (log ratio)” value was -4.58.

For GACCAAUCUGCCCUCAGAGCUCGAGAACAUCUUCGGAUGCAUAGGAGACAGGCUUCGGUGGCGCGAUAGCGCCAACGUCCUCAACCUCCAAUGCAUCCCACCAUAUGAUGAUGCCUGAAGAGCCUUGGUUUUUUG [G42U G48A C104U], the “polymerase ribozyme fitness (log ratio)” value was -0.902.

In the case of GACCAAUCUGCCCUCAGAGCUCGAGAACAUCUUCGGAUGCAUAGGAUGCAGGCUUCGGUGGCGCGAUAGCGCCAACGUCCUCAACCUCCAAUGCAUCCCACCACAUGAUGAUGCCUGAAUAGCCUUGGUUUUUUG [G42U G47U G120U], the “polymerase ribozyme fitness (log ratio)” value was -1.57.
